In patent US20220395553A1 (COHBAR, published 2022):
Square brackets hold non-standard residues; d marks the D form. Ends that are not written are not given here.

Molecular target: T1, CXCR4 on cultured U937 and Jurkat cells (human, UniProt P61073 1-352)
Test: cell-based or functional assay

T1 sequence (P61073 whole entry): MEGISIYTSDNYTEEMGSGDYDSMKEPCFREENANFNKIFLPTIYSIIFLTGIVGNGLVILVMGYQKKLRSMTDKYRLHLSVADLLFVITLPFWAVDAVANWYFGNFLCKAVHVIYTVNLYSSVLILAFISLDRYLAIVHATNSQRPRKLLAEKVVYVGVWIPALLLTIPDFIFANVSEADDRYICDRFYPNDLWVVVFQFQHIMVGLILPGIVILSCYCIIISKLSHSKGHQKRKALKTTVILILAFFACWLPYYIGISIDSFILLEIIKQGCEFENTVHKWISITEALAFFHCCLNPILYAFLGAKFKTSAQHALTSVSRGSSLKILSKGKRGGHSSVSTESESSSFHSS

Binder | Percent Inhibition of CXCR4/CXCL12 Induced p-MEK (100 nM Test Article) | Percent Inhibition of CXCR4/CXCL12 Induced p-MEK (1 µM Test Article)
[dA]ERYHHS[dA]RSSLRPYTK [SEQ ID NO: 35] | -7% | -6%
LRRFHHSVRSSLRPYTK [SEQ ID NO: 53] | 62% | 98%
LRDYHHSVRSSLRPYTK [SEQ ID NO: 36] | 22% | -5%
LERYHHS[dA]RSSLRGYTK [SEQ ID NO: 81] | -16% | 20%
LERYHHSVRSSLRPFTK [SEQ ID NO: 60] | 34% | 82%
LRRYHHSVDSSLRPYTK [SEQ ID NO: 66] | -7% | 13%
LDRYHHS[dA]RSSLRPYTK [SEQ ID NO: 8] | 32% | 88%
LRRYHHTVRSSLRPYTK [SEQ ID NO: 38] | 51% | 96%
LRRYHHSVRSSLDPYTK [SEQ ID NO: 67] | -8% | 42%
LRRYHHSVRSSLRPYSK [SEQ ID NO: 72] | 8% | 86%
LERFHHS[dA]RSSLRPYTK [SEQ ID NO: 55] | 16% | 72%

Molecular target: T2, SNAP tagged-CXC4 receptor labeled with terbium (Tag-lite CXCR4 cells, HEK293) (UniProt P61073 1-352, SNAP tag labeled with terbium fluorescent dye)
T2 construct: whole, on cells; Bought frozen cells (PerkinElmer-CisBio), HEK293 transiently expressing the receptor; also called terbium labeled CXCR receptor
T2 sequence (P61073 whole entry): as above
Test: HTRF competition on Tag-lite CXCR4 HEK293 cells; competitor labelled CXCL12
Protocol: (§1) Peptides were initially prepared as 1 mM stock in H₂O and tested at a final concentration of 400 nM. Following the manufacture's protocol, a frozen aliquot of Tag-lite CXCR4 cells was thawed and immediately seeded onto 384-well plates in TLB. Immediately following the addition of cells, 400 nM peptide (final concentration) in TLB was added to the appropriate well. […] The plates were covered in aluminum foil and left at room temperature for 3 hours. Following the 3 hour incubation period, the plates were removed from the incubator and fluorescence measured using a Cytation 1 plate reader using a HTRF filter cube ([…]; BioTek; Winooski, Vt.).

Binder | Percent Inhibition of CXCR4/CXCL12 Binding (400 nM peptide)
[dA]ERYHHS[dA]RSSLRPYTK [SEQ ID NO: 35] | -13%
LRRFHHSVRSSLRPYTK [SEQ ID NO: 53] | 5%
LRDYHHSVRSSLRPYTK [SEQ ID NO: 36] | -11%
LERYHHS[dA]RSSLRGYTK [SEQ ID NO: 81] | 81%
LERYHHSVRSSLRPFTK [SEQ ID NO: 60] | 60%
LRRYHHSVDSSLRPYTK [SEQ ID NO: 66] | -5%
LDRYHHS[dA]RSSLRPYTK [SEQ ID NO: 8] | 86%
LRRYHHTVRSSLRPYTK [SEQ ID NO: 38] | 12%
LRRYHHSVRSSLDPYTK [SEQ ID NO: 67] | 3%
LRRYHHSVRSSLRPYSK [SEQ ID NO: 72] | 6%
LERFHHS[dA]RSSLRPYTK [SEQ ID NO: 55] | 56%

Molecular target: ProLink tagged human CXCR4 (C2C12 CXCR4 β-Arrestin cell line) (human, UniProt P61073 1-352)
Sequence (P61073 whole entry): as above
Test: cell-based or functional assay

Binder | IC50 for Inhibition of CXCR4 Activation (β-Arrestin recruitment)
[dA]ERYHHS[dA]RSSLRPYTK [SEQ ID NO: 35] | 291 nM
LRRFHHSVRSSLRPYTK [SEQ ID NO: 53] | 3 nM
LRDYHHSVRSSLRPYTK [SEQ ID NO: 36] | > 1000 nM
LERYHHS[dA]RSSLRGYTK [SEQ ID NO: 81] | 3 nM
LERYHHSVRSSLRPFTK [SEQ ID NO: 60] | 4 nM
LRRYHHSVDSSLRPYTK [SEQ ID NO: 66] | 27 nM
LDRYHHS[dA]RSSLRPYTK [SEQ ID NO: 8] | 3 nM
LRRYHHTVRSSLRPYTK [SEQ ID NO: 38] | 3 nM
LRRYHHSVRSSLDPYTK [SEQ ID NO: 67] | 14 nM
LRRYHHSVRSSLRPYSK [SEQ ID NO: 72] | 5 nM
LERFHHS[dA]RSSLRPYTK [SEQ ID NO: 55] | 4 nM

Molecular target: T1, CXCR4 on cultured U937 and Jurkat cells
Test: cell-based or functional assay
Remark: another data set of the same source

Binder | Percent Inhibition of CXCL12 Mediated Migration (1.1 µM Test Article; Jurkat cells)
LRRFHHSVRSSLRPYTK [SEQ ID NO: 53] | 59%
LERYHHSVRSSLRPFTK [SEQ ID NO: 60] | 33%
LDRYHHS[dA]RSSLRPYTK [SEQ ID NO: 8] | 94%

Molecular target: T2, SNAP tagged-CXC4 receptor labeled with …
Test: HTRF competition on Tag-lite CXCR4 HEK293 cells; competitor labelled CXCL12
Remark: another data set of the same source
Protocol: as §1, with “H₂O. […]” for “H₂O and tested at a final concentration of 400 nM.”, “TLB.” for “TLB. Immediately following the addition of cells, 400 nM peptide (final concentration) in TLB was added to the appropriate well.”

Binder | IC50
[dA]ERYHHS[dA]RSSLRPYTK [SEQ ID NO: 35] | 6310 nM
LRRFHHSVRSSLRPYTK [SEQ ID NO: 53] | 108 nM
LRDYHHSVRSSLRPYTK [SEQ ID NO: 36] | 5990 nM
LERYHHS[dA]RSSLRGYTK [SEQ ID NO: 81] | 23 nM
LERYHHSVRSSLRPFTK [SEQ ID NO: 60] | 17 nM
LRRYHHSVDSSLRPYTK [SEQ ID NO: 66] | 563 nM
LDRYHHS[dA]RSSLRPYTK [SEQ ID NO: 8] | 9 nM
LRRYHHTVRSSLRPYTK [SEQ ID NO: 38] | 175 nM
LRRYHHSVRSSLDPYTK [SEQ ID NO: 67] | 380 nM
LRRYHHSVRSSLRPYSK [SEQ ID NO: 72] | 589 nM
LERFHHS[dA]RSSLRPYTK [SEQ ID NO: 55] | 31 nM
